Source: patent publication US10087225B2, “Formulation of MK2 inhibitor peptides” (MOERAE MATRIX, INC., priority 2015, dated 2018)

How the values were obtained:
Assay in all cases: Kinase Profiling Assay
Format in all cases: biochemical
Settings in all cases: for % activity: 100 μM
[1] = biological target: T1, ASK1(h) (Homo sapiens, UniProt Q99683)
T1 sequence (Q99683 1-1374): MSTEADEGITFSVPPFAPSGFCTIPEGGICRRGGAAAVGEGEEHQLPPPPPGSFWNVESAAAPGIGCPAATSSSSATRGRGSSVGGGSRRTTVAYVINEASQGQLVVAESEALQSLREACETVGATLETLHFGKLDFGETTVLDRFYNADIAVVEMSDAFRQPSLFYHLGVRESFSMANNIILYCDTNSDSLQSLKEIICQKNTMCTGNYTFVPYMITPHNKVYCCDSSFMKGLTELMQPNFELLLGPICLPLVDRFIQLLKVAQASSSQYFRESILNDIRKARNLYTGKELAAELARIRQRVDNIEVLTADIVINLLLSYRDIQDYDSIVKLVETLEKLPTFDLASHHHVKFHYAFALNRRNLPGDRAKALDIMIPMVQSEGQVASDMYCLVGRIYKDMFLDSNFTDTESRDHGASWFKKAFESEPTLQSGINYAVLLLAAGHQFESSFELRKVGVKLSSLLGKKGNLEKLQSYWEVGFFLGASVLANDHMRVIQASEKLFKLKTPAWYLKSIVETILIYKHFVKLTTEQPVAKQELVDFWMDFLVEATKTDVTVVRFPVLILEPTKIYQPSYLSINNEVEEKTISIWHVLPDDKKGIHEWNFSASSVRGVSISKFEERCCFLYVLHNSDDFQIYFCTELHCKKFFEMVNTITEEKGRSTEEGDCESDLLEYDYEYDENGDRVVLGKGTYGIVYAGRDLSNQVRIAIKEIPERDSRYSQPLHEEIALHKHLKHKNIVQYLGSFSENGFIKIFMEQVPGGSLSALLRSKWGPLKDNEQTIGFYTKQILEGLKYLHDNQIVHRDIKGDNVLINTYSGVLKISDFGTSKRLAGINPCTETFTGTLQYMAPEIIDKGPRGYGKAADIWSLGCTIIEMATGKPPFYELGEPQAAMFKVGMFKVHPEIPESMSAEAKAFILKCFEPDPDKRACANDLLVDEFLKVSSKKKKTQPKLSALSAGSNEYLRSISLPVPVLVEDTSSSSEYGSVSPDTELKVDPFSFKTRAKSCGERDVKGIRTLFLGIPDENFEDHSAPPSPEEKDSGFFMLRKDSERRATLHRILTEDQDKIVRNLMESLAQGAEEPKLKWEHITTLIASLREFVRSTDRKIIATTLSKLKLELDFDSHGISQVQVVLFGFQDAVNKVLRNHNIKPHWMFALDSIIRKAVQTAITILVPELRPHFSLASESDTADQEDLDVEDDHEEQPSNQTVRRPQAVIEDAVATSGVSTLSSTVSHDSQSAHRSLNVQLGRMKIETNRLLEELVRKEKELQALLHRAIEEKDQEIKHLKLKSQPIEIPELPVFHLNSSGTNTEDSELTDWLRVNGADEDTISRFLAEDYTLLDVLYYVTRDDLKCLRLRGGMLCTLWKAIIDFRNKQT

[2] = biological target: T2, BrSK1(h) (Homo sapiens, UniProt Q8TDC3)
T2 sequence (Q8TDC3 1-778): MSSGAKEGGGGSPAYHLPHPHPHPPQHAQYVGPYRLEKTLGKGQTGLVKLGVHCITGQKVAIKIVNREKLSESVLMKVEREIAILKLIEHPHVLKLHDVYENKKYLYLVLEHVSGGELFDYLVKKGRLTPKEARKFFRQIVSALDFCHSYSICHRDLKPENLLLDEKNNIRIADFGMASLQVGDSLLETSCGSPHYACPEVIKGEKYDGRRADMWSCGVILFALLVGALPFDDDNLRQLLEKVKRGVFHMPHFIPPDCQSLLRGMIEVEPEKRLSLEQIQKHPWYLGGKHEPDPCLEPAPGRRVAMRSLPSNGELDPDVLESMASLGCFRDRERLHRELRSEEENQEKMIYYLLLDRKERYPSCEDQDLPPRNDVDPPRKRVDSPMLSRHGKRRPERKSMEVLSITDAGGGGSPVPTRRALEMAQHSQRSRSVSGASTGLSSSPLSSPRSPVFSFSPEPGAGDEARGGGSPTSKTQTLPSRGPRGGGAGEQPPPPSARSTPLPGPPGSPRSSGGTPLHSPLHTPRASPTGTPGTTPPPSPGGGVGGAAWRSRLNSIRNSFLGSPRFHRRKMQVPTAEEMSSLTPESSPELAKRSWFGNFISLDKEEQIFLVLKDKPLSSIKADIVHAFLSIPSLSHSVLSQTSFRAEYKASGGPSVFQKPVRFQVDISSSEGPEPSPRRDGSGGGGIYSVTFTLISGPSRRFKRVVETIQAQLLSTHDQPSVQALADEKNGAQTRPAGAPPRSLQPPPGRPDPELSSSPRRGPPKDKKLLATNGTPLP

[3] = biological target: CHK2(I157T)(h) (Homo sapiens, UniProt O96017, I157T)
Sequence of CHK2(I157T)(h) (O96017 whole entry I157T): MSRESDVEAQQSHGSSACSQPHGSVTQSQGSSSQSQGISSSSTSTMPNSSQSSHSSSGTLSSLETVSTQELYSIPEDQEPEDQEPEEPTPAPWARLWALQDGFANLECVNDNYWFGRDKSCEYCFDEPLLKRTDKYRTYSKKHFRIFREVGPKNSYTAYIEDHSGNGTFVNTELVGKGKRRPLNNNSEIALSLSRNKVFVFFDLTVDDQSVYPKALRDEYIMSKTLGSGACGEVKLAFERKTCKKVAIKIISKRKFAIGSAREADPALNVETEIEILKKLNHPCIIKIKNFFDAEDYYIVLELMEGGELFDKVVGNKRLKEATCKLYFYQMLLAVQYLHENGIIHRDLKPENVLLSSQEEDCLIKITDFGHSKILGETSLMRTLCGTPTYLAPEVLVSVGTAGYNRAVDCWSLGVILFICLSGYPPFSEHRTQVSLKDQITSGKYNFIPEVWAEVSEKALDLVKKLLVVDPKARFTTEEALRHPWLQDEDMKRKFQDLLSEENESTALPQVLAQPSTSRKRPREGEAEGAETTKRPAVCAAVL

[4] = biological target: T3, PKG1α(h) (Homo sapiens, UniProt Q13976)
T3 sequence (Q13976 1-671): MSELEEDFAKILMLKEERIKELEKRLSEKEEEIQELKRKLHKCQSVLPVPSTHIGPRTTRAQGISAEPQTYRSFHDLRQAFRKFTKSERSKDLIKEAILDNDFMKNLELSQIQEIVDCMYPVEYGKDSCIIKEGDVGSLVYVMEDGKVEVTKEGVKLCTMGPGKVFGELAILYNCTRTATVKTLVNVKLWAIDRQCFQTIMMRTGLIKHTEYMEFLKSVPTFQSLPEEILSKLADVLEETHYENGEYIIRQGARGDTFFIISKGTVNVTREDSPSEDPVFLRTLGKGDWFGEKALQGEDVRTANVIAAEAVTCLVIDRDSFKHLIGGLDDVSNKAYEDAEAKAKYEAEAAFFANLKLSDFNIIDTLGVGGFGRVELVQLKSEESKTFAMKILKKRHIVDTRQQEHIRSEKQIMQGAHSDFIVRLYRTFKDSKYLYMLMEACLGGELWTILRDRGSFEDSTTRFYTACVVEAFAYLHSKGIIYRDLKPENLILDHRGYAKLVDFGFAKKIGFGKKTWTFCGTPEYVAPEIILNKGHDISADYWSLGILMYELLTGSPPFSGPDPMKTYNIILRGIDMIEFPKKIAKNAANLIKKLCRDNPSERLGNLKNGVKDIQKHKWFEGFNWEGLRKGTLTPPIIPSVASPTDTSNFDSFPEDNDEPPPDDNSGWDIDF

[5] = biological target: Ax1(h) (Homo sapiens, UniProt P30530)
[6] = biological target: PAK2(h) (Homo sapiens, UniProt Q13177)
Sequence of PAK2(h) (Q13177 whole entry): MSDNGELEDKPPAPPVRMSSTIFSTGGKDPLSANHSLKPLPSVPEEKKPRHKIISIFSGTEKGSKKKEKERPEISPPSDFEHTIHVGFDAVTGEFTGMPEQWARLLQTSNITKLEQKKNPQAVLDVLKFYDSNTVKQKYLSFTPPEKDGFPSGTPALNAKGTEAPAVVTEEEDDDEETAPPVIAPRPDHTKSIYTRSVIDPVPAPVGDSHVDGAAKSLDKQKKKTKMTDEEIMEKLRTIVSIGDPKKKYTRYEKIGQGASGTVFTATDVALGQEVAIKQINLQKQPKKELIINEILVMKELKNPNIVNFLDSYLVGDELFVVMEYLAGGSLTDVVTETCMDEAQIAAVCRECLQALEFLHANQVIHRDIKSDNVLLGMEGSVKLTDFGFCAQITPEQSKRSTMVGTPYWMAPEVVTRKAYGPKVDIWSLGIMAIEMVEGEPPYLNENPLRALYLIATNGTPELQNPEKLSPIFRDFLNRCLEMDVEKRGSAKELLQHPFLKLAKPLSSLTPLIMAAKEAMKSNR

Row | Substance | % activity [1] [%] | % activity [2] [%] | % activity [3] [%] | % activity [4] [%] | % activity [5] [%] | % activity [6] [%] | activity at 100 µM [1] [%] | activity at 100 µM [2] [%] | activity at 100 µM [3] [%] | activity at 100 µM [4] [%] | activity at 100 µM [5] [%] | activity at 100 µM [6] [%]
1 | YARAAARQARAKALNRQLGVA (Mammalian) [MMI-0200] | 101 | 93 | 85 | 70 | 99 | 69 |  |  |  |  |  | 
2 | H-YARAAARQARAKALARQLGVAA-OH [MMI-0100] |  |  |  |  |  |  | 100 | 100 | 97 | 82 | 81 | 71
3 | HRRIKAWLKKIKALARQLGVAA (Mammalian) [MMI-0500] | -4 | 72 | 3 | 25 | 12 | 44 |  |  |  |  |  | 
